T1: OML4-Flag
T1 chain: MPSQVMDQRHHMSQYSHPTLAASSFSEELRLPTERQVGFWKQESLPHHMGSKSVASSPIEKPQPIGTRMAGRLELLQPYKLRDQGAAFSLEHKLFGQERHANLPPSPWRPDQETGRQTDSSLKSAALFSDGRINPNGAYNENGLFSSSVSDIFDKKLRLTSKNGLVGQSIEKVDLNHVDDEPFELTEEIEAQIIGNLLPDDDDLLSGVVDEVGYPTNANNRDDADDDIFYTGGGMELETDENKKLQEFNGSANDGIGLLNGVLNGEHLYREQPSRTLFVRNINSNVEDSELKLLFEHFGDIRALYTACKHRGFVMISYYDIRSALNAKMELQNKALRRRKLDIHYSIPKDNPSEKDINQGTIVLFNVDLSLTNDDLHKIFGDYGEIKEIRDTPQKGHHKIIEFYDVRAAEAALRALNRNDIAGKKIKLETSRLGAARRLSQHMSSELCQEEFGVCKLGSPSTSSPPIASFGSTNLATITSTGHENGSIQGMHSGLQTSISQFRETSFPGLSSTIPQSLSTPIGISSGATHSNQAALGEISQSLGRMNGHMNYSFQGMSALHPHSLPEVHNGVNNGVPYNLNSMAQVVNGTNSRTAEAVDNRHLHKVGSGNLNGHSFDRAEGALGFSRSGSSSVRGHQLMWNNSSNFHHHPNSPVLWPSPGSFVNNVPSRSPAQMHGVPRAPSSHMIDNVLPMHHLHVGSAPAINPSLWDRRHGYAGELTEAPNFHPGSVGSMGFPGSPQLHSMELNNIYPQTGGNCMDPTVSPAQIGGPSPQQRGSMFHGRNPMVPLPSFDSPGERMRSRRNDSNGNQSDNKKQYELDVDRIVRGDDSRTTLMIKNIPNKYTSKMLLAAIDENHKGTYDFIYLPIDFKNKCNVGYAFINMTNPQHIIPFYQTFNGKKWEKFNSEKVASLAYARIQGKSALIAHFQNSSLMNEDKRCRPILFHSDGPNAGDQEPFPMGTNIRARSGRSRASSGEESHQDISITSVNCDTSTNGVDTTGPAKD

T2: cOML4-Flag
T2 chain: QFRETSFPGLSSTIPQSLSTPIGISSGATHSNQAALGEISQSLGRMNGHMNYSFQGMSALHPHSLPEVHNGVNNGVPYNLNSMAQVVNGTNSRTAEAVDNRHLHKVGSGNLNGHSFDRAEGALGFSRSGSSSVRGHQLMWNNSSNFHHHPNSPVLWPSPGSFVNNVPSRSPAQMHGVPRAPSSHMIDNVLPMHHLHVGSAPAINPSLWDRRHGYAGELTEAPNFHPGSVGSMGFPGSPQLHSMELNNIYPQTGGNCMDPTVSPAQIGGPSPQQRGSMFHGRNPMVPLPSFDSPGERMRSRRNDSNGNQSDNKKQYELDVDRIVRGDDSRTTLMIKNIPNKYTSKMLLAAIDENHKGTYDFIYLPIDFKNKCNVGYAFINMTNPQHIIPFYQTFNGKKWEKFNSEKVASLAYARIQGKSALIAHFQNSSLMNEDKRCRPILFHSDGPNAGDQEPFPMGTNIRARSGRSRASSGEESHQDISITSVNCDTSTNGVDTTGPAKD

T3: nOML4-Flag
T3 chain: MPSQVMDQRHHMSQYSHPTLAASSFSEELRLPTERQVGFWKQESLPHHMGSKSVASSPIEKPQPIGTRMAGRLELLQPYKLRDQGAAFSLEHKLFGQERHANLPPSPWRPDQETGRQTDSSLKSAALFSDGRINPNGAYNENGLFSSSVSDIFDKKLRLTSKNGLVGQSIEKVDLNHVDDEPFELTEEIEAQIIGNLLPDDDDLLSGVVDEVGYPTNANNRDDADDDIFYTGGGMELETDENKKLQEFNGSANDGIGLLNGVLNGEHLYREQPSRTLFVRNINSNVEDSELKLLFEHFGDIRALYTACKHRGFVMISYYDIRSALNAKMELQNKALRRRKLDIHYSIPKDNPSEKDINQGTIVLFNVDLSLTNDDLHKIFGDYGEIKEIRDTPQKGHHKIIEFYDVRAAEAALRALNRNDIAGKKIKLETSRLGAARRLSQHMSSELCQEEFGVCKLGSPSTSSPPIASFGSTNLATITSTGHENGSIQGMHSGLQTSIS

T4: recombinant OML4
T4 chain: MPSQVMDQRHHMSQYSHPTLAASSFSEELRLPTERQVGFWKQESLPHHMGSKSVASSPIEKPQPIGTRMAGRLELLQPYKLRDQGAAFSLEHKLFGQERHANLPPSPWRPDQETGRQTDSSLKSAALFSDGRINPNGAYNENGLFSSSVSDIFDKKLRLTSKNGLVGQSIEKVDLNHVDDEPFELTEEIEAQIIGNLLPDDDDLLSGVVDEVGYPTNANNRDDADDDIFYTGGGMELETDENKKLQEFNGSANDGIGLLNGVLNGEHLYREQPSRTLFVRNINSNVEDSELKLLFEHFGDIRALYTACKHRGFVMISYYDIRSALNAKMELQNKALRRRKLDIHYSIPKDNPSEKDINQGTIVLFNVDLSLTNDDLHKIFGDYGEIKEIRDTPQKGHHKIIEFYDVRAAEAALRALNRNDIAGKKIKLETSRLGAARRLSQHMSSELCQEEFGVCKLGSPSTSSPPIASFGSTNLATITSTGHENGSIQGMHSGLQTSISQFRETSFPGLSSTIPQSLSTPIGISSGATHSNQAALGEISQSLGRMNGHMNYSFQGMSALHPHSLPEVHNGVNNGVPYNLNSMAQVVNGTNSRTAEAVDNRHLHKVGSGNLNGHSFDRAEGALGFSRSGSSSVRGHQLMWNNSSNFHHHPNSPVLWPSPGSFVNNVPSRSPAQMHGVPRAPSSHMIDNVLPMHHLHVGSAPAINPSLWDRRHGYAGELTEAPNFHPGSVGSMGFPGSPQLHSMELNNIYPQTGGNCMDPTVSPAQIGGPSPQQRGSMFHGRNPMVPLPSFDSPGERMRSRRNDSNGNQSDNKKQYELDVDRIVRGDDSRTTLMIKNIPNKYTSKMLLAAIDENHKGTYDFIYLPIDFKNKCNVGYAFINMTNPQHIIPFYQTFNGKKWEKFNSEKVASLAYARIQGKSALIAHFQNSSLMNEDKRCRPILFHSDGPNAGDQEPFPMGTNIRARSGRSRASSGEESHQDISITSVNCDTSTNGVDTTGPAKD


Assays:
[1] = target: T1, OML4-Flag
[2] = target: OML4S105A, S607A-MBP
[3] = target: cOML4(S607A)-FLAG
[4] = target: T2, cOML4-Flag
[5] = target: nOML4(S105A)-FLAG
[6] = target: T3, nOML4-Flag
[7] = target: T4, recombinant OML4

Protein	phosphorylation, in vitro kinase assay, phos-tag SDS-PAGE [1]	phosphorylation level, phos-tag SDS-PAGE [2]	phosphorylation, phos-tag SDS-PAGE [3]	phosphorylation, in vitro kinase assay, phos-tag SDS-PAGE [4]	phosphorylation, phos-tag SDS-PAGE [5]	phosphorylation, in vitro kinase assay, phos-tag SDS-PAGE [6]	phosphopeptides of OML4 found by LC-MS/MS after in vitro kinase reaction [7]	phosphosites of OML4 found by LC-MS/MS after in vitro kinase reaction [7]
GSK2-GST (protein) MDQPAPAPEPMLLDAQPPAAVACDKKQQEGEAPYAEGNDAVTGHIISTTIGGKNGEPKRTISYMAERVVGTGSFGIVFQAKCLETGETVAIKKVLQDRRYKNRELQLMRAMDHPNVISLKHCFFSTTSRDELFLNLVMEYVPETLYRVLKHYSNANHRMPLIYVKLYMYQLFRGLAYIHTVPGVCHRDVKPQNVLVDPLTHQVKLCDFGSAKTLVPGEPNISYICSRYYRAPELIFGATEYTTSIDIWSAGCVLAELLLGQPLFPGESAVDQLVEIIKVLGTPTREEIRCMNPNYTEFRFPQIKAHPWHKVFHKRMPPEAIDLASRLLQYSPSLRCTALDACAHPFFDELREPNARLPNGRPFPPLFNFKHELANSSQELISRLIPEHVRRQATHNFFNTGS	The phosphorylated OML4-Flag, nOML4-Flag and cOML4-Flag were detected in the presence of GSK2-GST, while the phosphorylated OML4-Flag, nOML4-Flag and cOML4-Flag were not found in the absence of GSK2-GST	Mutations of the two aforementioned Ser residues to Ala reduced the phosphorylation level of OML4, although OML4^S105A,S607A was still phosphorylated by GSK2	S(105) and S(607) partially influence the phosphorylation of OML4	The phosphorylated OML4-Flag, nOML4-Flag and cOML4-Flag were detected in the presence of GSK2-GST, while the phosphorylated OML4-Flag, nOML4-Flag and cOML4-Flag were not found in the absence of GSK2-GST	S(105) and S(607) partially influence the phosphorylation of OML4	The phosphorylated OML4-Flag, nOML4-Flag and cOML4-Flag were detected in the presence of GSK2-GST, while the phosphorylated OML4-Flag, nOML4-Flag and cOML4-Flag were not found in the absence of GSK2-GST		
recombinant GSK2 (protein) MDQPAPAPEPMLLDAQPPAAVACDKKQQEGEAPYAEGNDAVTGHIISTTIGGKNGEPKRTISYMAERVVGTGSFGIVFQAKCLETGETVAIKKVLQDRRYKNRELQLMRAMDHPNVISLKHCFFSTTSRDELFLNLVMEYVPETLYRVLKHYSNANHRMPLIYVKLYMYQLFRGLAYIHTVPGVCHRDVKPQNVLVDPLTHQVKLCDFGSAKTLVPGEPNISYICSRYYRAPELIFGATEYTTSIDIWSAGCVLAELLLGQPLFPGESAVDQLVEIIKVLGTPTREEIRCMNPNYTEFRFPQIKAHPWHKVFHKRMPPEAIDLASRLLQYSPSLRCTALDACAHPFFDELREPNARLPNGRPFPPLFNFKHELANSSQELISRLIPEHVRRQATHNFFNTGS							We identified 18 phosphopeptides of OML4, which correspond to 14 phosphosites	We identified 18 phosphopeptides of OML4, which correspond to 14 phosphosites
